Among the data in patent US20190169232A1 are signal intensity ratio (number under the SHP-1 blot) and Kd values, retold here.

Assay [1] addresses LAIR-1 on human monocytes (human) (UniProt Q6GTX8). Nature of the assay: co-immunoprecipitation from human monocytes, IP anti-LAIR-1, blot anti-SHP-1; cells treated with C1q alone.
The target is the same in assay [2]. Briefly: co-immunoprecipitation from human monocytes, IP anti-LAIR-1, blot anti-SHP-1; cells treated with HMGB1 alone.
For assay [3] the target is unchanged. Nature of the assay: co-immunoprecipitation from human monocytes, IP anti-LAIR-1, blot anti-SHP-1; cells treated with C1q and HMGB1.
For assay [4] the target is unchanged. Nature of the assay: co-immunoprecipitation from human monocytes, IP anti-LAIR-1, blot anti-SHP-1; cells without C1q and without HMGB1.
For assay [5], the target named is C1q purified from pooled normal human sera (human) (UniProt P02746). Nature of the assay: SPR kinetics, C1q immobilised on a CM5 chip, HMGB1 redox form as analyte in a concentration series, 1:1 fit.
Sequence of C1q purified from pooled normal human sera (human) (chain, as listed by the source, chain 1 of 3): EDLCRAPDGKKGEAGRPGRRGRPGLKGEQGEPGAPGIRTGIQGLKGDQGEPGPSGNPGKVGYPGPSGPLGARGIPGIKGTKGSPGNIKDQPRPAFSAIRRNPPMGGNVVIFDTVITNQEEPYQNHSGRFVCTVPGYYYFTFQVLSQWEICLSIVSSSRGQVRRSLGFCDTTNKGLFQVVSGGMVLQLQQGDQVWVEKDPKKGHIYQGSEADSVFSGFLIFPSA
Sequence of C1q purified from pooled normal human sera (human) (P02746 28-253, chain 2 of 3): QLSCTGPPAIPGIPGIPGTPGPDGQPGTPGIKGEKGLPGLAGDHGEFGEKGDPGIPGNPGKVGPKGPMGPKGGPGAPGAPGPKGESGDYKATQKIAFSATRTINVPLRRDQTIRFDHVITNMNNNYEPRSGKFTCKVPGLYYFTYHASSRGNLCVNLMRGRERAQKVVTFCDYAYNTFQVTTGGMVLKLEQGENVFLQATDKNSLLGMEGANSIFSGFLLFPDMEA
Sequence of C1q purified from pooled normal human sera (human) (P02747 29-245, chain 3 of 3): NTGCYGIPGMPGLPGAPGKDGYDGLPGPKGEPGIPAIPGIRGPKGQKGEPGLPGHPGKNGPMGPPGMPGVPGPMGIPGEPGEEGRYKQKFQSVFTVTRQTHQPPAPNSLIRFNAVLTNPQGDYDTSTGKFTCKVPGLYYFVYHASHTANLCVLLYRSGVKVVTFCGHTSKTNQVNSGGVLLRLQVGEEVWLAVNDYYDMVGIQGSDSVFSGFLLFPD

Sequence of LAIR-1 on human monocytes (human) (Q6GTX8 22-287): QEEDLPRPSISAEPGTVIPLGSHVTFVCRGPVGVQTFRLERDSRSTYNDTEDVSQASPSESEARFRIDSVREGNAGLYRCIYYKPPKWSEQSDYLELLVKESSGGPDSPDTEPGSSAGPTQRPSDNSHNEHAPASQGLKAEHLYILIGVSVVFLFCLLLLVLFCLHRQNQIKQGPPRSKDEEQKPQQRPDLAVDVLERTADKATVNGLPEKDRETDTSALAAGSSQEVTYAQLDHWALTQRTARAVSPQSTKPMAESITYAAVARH
Sequence of Oxidized HMGB1 (ligand) (P09429 whole entry): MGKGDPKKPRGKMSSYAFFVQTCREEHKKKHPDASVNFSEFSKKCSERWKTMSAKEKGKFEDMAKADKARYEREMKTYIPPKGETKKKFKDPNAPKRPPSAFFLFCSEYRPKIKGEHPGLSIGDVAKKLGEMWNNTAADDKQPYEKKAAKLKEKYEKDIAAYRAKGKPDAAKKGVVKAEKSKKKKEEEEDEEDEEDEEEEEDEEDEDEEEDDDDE

Turning to SHP-1 (from UniProt P29350 1-595), the signal intensity ratio (number under the SHP-1 blot) worked out at 2.6 in assay [1], 0.7 in assay [2], 4.4 in assay [3] and 1 in assay [4].

For the substance Oxidized HMGB1 (ligand), the Kd in assay [5] was determined as 1560 nM.
